In patent US20250297030A1 (SHANDONG SIMCERE BIOPHARMACEUTICAL, published 2025):
Like-named read-outs stand apart in the source and are kept apart here.

T1: Cyno MUC17 ECD3577-his (His-tagged cynomolgus monkey MUC17 protein extracellular domain fusion protein) (cynomolgus monkey)
T1 construct: also called monkey MUC17-his protein; monkey MUC17 ECD3577-His
T1 chain: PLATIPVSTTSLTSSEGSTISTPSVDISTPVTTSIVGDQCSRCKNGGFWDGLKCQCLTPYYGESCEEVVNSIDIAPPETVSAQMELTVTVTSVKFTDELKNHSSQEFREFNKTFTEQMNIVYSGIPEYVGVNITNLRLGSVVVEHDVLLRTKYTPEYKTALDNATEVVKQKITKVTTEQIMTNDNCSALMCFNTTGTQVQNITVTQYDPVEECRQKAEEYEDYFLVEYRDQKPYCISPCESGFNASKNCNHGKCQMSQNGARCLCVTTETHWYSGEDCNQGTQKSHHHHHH

B1: 4C11-hIgG1 (antibody, V domains shown)
VH: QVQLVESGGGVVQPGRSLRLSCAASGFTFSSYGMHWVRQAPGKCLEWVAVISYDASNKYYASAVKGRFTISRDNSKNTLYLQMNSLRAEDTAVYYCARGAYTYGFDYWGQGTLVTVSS
VL: EIVLTQSPGTLSLSPGERATLSCRASQSVNRYLAWYQQKPGQAPRLLIYGASNRATGIPDRFTGSGSGTDFTLTISRLEPEDFAVYFCHHYGSSIFAFGCGTKVEIKR
notes: also called MUC17 control antibody
B2: Lab315 (VHH)
VHH: DVQLQASGGGAVQAGGSLRLSCAASGDITRRCMGWFRQAPGKEREGVAGISEDGITIYADSVKGRFTISKDNAKNSLYLQMNSLAPEDTANYSCAASILNRVGCRQLSYEYIYRGQGTQVTVSS
notes: also called Lab315 phage clone; SCR-7724

Legend:
[1] = biological target: T1, Cyno MUC17 ECD3577-his (His-tagged …); experiment: ELISA on coated monkey MUC17 ECD3577-His, OD450
Protocol: (§1) A human MUC17-his protein was diluted with PBS to a final concentration of […] and then added to a 96-well ELISA plate at 50 µL/well. The plate was incubated at 4° C. overnight. The next day, the plate was washed 2 times with PBST, and a blocking buffer [PBS+2% (w/w) BSA] was added for blocking at room temperature for 2 h. The blocking buffer was discarded, and the recombinant antibody and positive and negative control antibody with a starting concentration of 100 nM serially diluted by 3 folds were added at 50 μL/well. After incubation at 37° C. for 1 h, the plate was washed 3 times with PBST. A horseradish peroxidase (HRP)-labeled secondary antibody (purchased from Merck, Cat. No. AP113P) was added for incubation at 37° C. for 1 h, and the plate was washed 5 times with PBST. A TMB substrate was added at 50 μL/well for incubation at room temperature for 10 min, and then a stop solution (1.0 M HCl) was added at 50 µL/well. The OD₄₅₀ nm values were read by an ELISA plate reader (Multimode Plate Reader, EnSight, purchased from Perkin Elmer).
(§2) The monkey MUC17-his protein was subjected to ELISA and data analysis according to the method described in Example 3.2. The recombinant antibodies Lab315-huFc, Lab316-huFc, Lab320-huFc, Lab331-huFc, and Lab332-huFc have a relatively good binding activity with the monkey MUC17-his protein.

[2] = biological target: T2, Human MUC17 ECD4131-his (His-tagged human MUC17 protein extracellular domain fusion protein) (human, UniProt Q685J3 4131-4393); experiment: ELISA on coated human MUC17 ECD4131-his, OD450
T2 construct: a truncation of the extracellular domain; also called human MUC17-his protein; human MUC17-His
Protocol: as §1

[3] = biological target: T1, Cyno MUC17 ECD3577-his (His-tagged …); experiment: ELISA on coated monkey MUC17 ECD3577-His, OD450
Protocol: (§3) To assay the binding activity of the humanized antibodies with the monkey MUC17-his protein, the monkey MUC17-his protein was diluted with PBS to a final concentration of […] and subjected to ELISA assay and data analysis according to the method described in Example 3.3. The humanized antibodies SCR-7724, SCR-7782, SCR-7783, SCR-7784, and SCR-7785 have cross-binding activity with the monkey MUC17 protein, maintaining the binding ability of the recombinant antibody.

[4] = biological target: human MUC17 on NUGC4 endogenous tumor cells (human, UniProt Q685J3 26-4493); experiment: FACS on NUGC4 cells, MFI
Protocol: Then a complete medium was added to stop the digestion, and the cells were blown into a single cell suspension. After counting, the cells were centrifuged, and the cell pellet was resuspended to 2×10⁶ cells/mL in an FACS buffer (PBS+2% fetal bovine serum), and added to a 96-well FACS reaction plate at 100 µL/well. The plate was centrifuged, and the supernatant was discarded. An antibody sample to be tested (diluted in a 3-fold gradient from a starting concentration of 100 nM) was added at 50 µL/well and uniformly mixed with the cells, and the mixture was incubated at 4° C. for 1 h. […] The results were tested and analyzed by FACS (FACS Canto™, purchased from BD) after the plate was centrifuged and washed 3 times with a PBS buffer and resuspended with 100 μL of PBS. Data analysis was performed by software (FlowJo) to obtain the mean fluorescence intensity (MFI) of the cells. Then, analysis was performed by software (GraphPad Prism8), data were fitted, and EC50 values were calculated. As shown in FIGS. 3A-3B, the recombinant antibodies Lab315-huFc, Lab316-huFc, Lab320-huFc, Lab331-huFc, and Lab332-huFc are all capable of binding specifically to NUGC-4 cells.
The preparation of the assay cells and the antibodies to be tested and the assay were performed with reference to Example 3.4. […]

[5] = biological target: T1, Cyno MUC17 ECD3577-his (His-tagged …); experiment: ELISA on coated monkey MUC17 ECD3577-His, OD450
Protocol: as §3

[6] = biological target: T1, Cyno MUC17 ECD3577-his (His-tagged …); experiment: ELISA on coated monkey MUC17 ECD3577-His, OD450
Protocol: as §3

[7] = biological target: T2, Human MUC17 ECD4131-his (His-tagged …); experiment: ELISA on coated human MUC17 ECD4131-his, OD450; remark: listed apart in the source
Protocol: as §1

[8] = biological target: T2, Human MUC17 ECD4131-his (His-tagged …); experiment: ELISA on coated human MUC17 ECD4131-his, OD450; remark: listed apart in the source
Protocol: as §1

[9] = biological target: T1, Cyno MUC17 ECD3577-his (His-tagged …); experiment: ELISA on coated monkey MUC17 ECD3577-His, OD450
Protocol: as §3

[10] = biological target: T1, Cyno MUC17 ECD3577-his (His-tagged …); experiment: ELISA on coated monkey MUC17 ECD3577-His, OD450
Protocol: as §1, §2

[11] = biological target: T2, Human MUC17 ECD4131-his (His-tagged …); experiment: ELISA on coated human MUC17 ECD4131-his, OD450; remark: listed apart in the source
[12] = biological target: T1, Cyno MUC17 ECD3577-his (His-tagged …); experiment: phage ELISA and FACS screening

Binder	EC50 (read off the curve) [1] [nM]	EC50 (read off the curve) [2] [nM]	EC50 (read off the curve) [3] [nM]	EC50 (read off the curve) [4] [nM]	EC50 (read off the curve) [5] [nM]	EC50 (read off the curve) [6] [nM]	EC50 (read off the curve) [7] [nM]	EC50 (read off the curve) [8] [nM]	EC50 (read off the curve) [9] [nM]	EC50 (read off the curve) [10] [nM]	EC50 (read off the curve) [11] [nM]	binding result [12]
B1	~0.04	~0.05	~0.08	~4	~0.02	~0.05	~0.01	~0.05	~0.08	~0.02	~0.01	–
B2	–	–	–	–	–	–	–	–	–	–	–	binds
